This is an account of results in publication PMC3250484, “Molecular Networks in FGF Signaling: Flotillin-1 and Cbl-Associated Protein Compete for the Binding to Fibroblast Growth Factor Receptor Substrate 2” (PLoS ONE, 2012).

For experiment [1], the target named is T1, FRS2-His (UniProt Q8WU20 1-508).
T1 construct: called one of the 'FL proteins' in the results; The vector pSCherry2 (Eurogentec) may add a Cherry carrier besides the His tag (surmise); also called His-tagged FRS2; purified FRS2-His; source: E. coli SE1, purified (Ni-NTA, dialysis)
T1 sequence (looked up): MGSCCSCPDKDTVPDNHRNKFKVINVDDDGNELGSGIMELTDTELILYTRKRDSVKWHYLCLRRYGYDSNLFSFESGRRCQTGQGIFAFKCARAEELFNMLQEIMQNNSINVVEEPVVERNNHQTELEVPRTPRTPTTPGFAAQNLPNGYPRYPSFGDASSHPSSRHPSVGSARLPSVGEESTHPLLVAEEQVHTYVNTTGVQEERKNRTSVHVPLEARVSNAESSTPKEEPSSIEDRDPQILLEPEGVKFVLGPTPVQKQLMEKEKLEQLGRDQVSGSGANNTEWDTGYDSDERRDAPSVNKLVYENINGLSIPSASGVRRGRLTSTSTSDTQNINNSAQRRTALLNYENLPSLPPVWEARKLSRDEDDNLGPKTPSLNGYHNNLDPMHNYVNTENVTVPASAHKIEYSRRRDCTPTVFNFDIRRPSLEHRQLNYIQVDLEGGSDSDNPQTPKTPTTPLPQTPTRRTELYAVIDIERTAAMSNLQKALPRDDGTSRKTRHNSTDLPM
Nature of the experiment: pull-down; GST fusion immobilised on sepharose beads, purified FRS2-His in solution; 5 µg of the purified proteins, on ice 3 h; wash 50 mM Tris-HCl pH 7.5, 150 mM NaCl, 1 mM EDTA, 1 mM DTT, 0.01% Triton X-100; anti-His blot. The conditions noted are these: both partners purified.

Experiment [2] addresses T2, Flot-1-CT-GST (Rattus norvegicus (Rat), UniProt Q9Z1E1).
T2 chain: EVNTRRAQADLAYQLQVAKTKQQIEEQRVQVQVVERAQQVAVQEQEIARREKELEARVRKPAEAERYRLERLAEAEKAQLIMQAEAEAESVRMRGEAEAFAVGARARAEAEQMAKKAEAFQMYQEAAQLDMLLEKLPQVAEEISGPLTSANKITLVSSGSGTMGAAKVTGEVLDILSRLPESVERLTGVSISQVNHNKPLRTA
Nature of the experiment: GST pulldown.

For experiment [3], the target named is T3, FL Flot-1-GST (Rattus norvegicus (Rat), UniProt Q9Z1E1-1).
T3 chain: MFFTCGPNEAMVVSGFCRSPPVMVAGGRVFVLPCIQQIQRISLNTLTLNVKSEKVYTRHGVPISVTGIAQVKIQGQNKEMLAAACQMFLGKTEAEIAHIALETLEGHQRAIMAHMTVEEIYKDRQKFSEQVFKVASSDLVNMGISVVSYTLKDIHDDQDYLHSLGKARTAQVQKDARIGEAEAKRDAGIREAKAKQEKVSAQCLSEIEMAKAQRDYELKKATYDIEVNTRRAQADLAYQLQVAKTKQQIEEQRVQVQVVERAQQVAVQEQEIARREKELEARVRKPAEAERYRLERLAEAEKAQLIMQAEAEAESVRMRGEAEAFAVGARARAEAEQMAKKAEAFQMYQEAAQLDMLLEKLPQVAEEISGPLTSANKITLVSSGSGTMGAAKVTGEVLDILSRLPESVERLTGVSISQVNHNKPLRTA
Nature of the experiment: GST pulldown.

B1: FL Flot-1-GST (natural protein, rat, UniProt Q9Z1E1-1 1-428, looked up)
chain: T3 chain
notes: Rat flotillin-1 in pET41a, full length; pET41a adds further N-terminal tags besides GST (surmise from the vector); also called flot-1-FL-GST
In the case of B1, the binding result in experiment [1] is reported as “binds”.

B2: FRS2-His (protein)
chain: T1 sequence (looked up)
In the case of B2, the binding result in experiment [2] and in experiment [3] was “binds” in each case.
